According to patent publication US20260049138A1 (Chugai, published 2026):

Columns and labels:
[1] = target: T1, CD3ε homodimer protein (human, UniProt P07766 23-126, limits assumed); assay: SPR
T1 construct: also called CD3 (CD3ε)
T1 sequence (P07766 23-126 limits assumed): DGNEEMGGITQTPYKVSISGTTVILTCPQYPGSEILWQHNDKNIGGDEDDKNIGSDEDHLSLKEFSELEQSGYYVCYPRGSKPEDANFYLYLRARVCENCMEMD
Procedure: Each one-amino acid altered form constructed, expressed, and purified in the paragraph (6-2) was evaluated using Biacore T200 (GE Healthcare Japan Corp.). An appropriate amount of CD3ε homodimer protein was immobilized onto Sensor chip CM4 (GE Healthcare Japan Corp.) by the amine coupling method. Then, the antibody having an appropriate concentration was injected thereto as an analyte and allowed to interact with the CD3ε homodimer protein on the sensor chip. Then, the sensor chip was regenerated by the injection of 10 mmol/L glycine-HCl (pH 1.5). The assay was conducted at 25° C., and HBS-EP+ (GE Healthcare Japan Corp.) was used as a running buffer. […] Each parameter was calculated using Biacore T200 Evaluation Software (GE Healthcare Japan Corp.).
Specifically, when the amount of the GLS3000-containing antibody bound was defined as X and the amount of the L chain one-amino acid altered form bound was defined as Y, a value of Z (ratio of amounts bound)=Y/X was used.

[2] = target: T2, CD3ε homodimer protein (human, UniProt P07766 23-126, limits assumed); assay: SPR (Biacore T200), one-arm antibody as analyte over immobilised CD3ε homodimer protein, single-cycle kinetics
T2 construct: also called human CD3ε homodimer protein
T2 sequence (P07766 23-126 limits assumed): as above

Binder | KD ratio to GLS3000 [1] | Kd [2]
GLS3000 L33P (antibody, name in Kabat numbering, V domains shown, one-arm, rest as m2) VH: QVQLVESGGGVVQPGRSLRLSCAASGFTFSNAWMHWVRQAPGKGLEWVAQIKAKSNNYATYYAESVKGRFTISRDDSKNSLYLQMNSLKTEDTAVYYCRYVHYGAYYGVDAWGQGTTVTVSS VL: DIVMTQSPLSLPVTPGEPASISCRSSQSLVHSNRNTYPHWYQQKPGQAPRLLIYKVSNRFSGVPDRFSGSGSGTDFTLKISRVEAEDVGVYYCGQGTQVPYTFGQGTKLEIK | 32.7 | 
CE115HA000 / GLS3000 one-arm antibody (unaltered) (antibody, human IgG1, kappa, L234A L235A, N297A, All L chain altered forms m3-m332 have this format; for them only VH and VL are written out; also called GLS3000-containing antibody) heavy: QVQLVESGGGVVQPGRSLRLSCAASGFTFSNAWMHWVRQAPGKGLEWVAQIKAKSNNYATYYAESVKGRFTISRDDSKNSLYLQMNSLKTEDTAVYYCRYVHYGAYYGVDAWGQGTTVTVSSASTKGPSVFPLAPSSKSTSGGTAALGCLVKDYFPEPVTVSWNSGALTSGVHTFPAVLQSSGLYSLSSVVTVPSSSLGTQTYICNVNHKPSNTKVDKKVEPKSCDKTHTCPPCPAPEAAGGPSVFLFPPKPKDTLMISRTPEVTCVVVDVSHEDPEVKFNWYVDGVEVHNAKTKPREEQYASTYRVVSVLTVLHQDWLNGKEYKCKVSNKALPAPIEKTISKAKGQPREPQVYTLPPSRCELTKNQVSLSCAVKGFYPSDIAVEWESNGQPENNYKTTPPVLDSDGSFFLVSKLTVDKSRWQQGNVFSCSVMHEALHNHYTQKSLSLSPDYKDDDDK EPKSSDKTHTCPPCPAPELLGGPSVFLFPPKPKDTLMISRTPEVTCVVVDVSHEDPEVKFNWYVDGVEVHNAKTKPREEQYNSTYRVVSVLTVLHQDWLNGKEYKCKVSNKALPAPIEKTISKAKGQPREPQVCTLPPSRDELTKNQVSLWCLVKGFYPSDIAVEWESNGQPENNYKTTPPVLDSDGSFFLYSKLTVDKSRWQQGNVFSCSVMHEALHNRYTQKSLSLSP light: DIVMTQSPLSLPVTPGEPASISCRSSQSLVHSNRNTYLHWYQQKPGQAPRLLIYKVSNRFSGVPDRFSGSGSGTDFTLKISRVEAEDVGVYYCGQGTQVPYTFGQGTKLEIKRTVAAPSVFIFPPSDEQLKSGTASVVCLLNNFYPREAKVQWKVDNALQSGNSQESVTEQDSKDSTYSLSSTLTLSKADYEKHKVYACEVTHQGLSSPVTKSFNRGEC | 0.98 | 
One-arm antibody: NNS6f47 (CE115HA340 with HFMWWG inserted between Kabat positions 99 and 100) / Kn010G3 / GLS3000-kappa (antibody) chain 1: QVQLVESGGGLVQPGRSLRLSCAASGFTFSNAWMHWVRQAPGKGLEWVAQIKDKSNNYATYYAESVKGRFTISRDDSKNSIYLQMNSLKTEDTAVYYCRYVHYAAHFMWWGYYGVDAWGQGTTVTVSSASTKGPSVFPLAPSSKSTSGGTAALGCLVKDYFPEPVTVSWNSGALTSGVHTFPAVLQSSGLYSLSSVVTVPSSSLGTQTYICNVNHKPSNTKVDKKVEPKSCDKTHTCPPCPAPEAAGGPSVFLFPPKPKDTLMISRTPEVTCVVVDVSHEDPEVKFNWYVDGVEVHNAKTKPREEQYASTYRVVSVLTVLHQDWLNGKEYKCKVSNKALPAPIEKTISKAKGQPREPQVYTLPPSRCELTKNQVSLSCAVKGFYPSDIAVEWESNGQPENNYKTTPPVLDSDGSFFLVSKLTVDKSRWQQGNVFSCSVMHEALHNHYTQKSLSLSPDYKDDDDK chain 2: EPKSSDKTHTCPPCPAPELLGGPSVFLFPPKPKDTLMISRTPEVTCVVVDVSHEDPEVKFNWYVDGVEVHNAKTKPREEQYNSTYRVVSVLTVLHQDWLNGKEYKCKVSNKALPAPIEKTISKAKGQPREPQVCTLPPSRDELTKNQVSLWCLVKGFYPSDIAVEWESNGQPENNYKTTPPVLDSDGSFFLYSKLTVDKSRWQQGNVFSCSVMHEALHNRYTQKSLSLSP chain 3: DIVMTQSPLSLPVTPGEPASISCRSSQSLVHSNRNTYLHWYQQKPGQAPRLLIYKVSNRFSGVPDRFSGSGSGTDFTLKISRVEAEDVGVYYCGQGTQVPYTFGQGTKLEIKRTVAAPSVFIFPPSDEQLKSGTASVVCLLNNFYPREAKVQWKVDNALQSGNSQESVTEQDSKDSTYSLSSTLTLSKADYEKHKVYACEVTHQGLSSPVTKSFNRGEC |  | 31 nM

Further lines, results first:

KD ratio to GLS3000 [1] | Kd [2] | Binder
 | 29 nM | One-arm antibody: NNS6f54 (CE115HA340 with FEWVGW inserted between Kabat positions 99 and 100) / Kn010G3 / GLS3000-kappa (antibody) chain 1: QVQLVESGGGLVQPGRSLRLSCAASGFTFSNAWMHWVRQAPGKGLEWVAQIKDKSNNYATYYAESVKGRFTISRDDSKNSIYLQMNSLKTEDTAVYYCRYVHYAAFEWVGWYYGVDAWGQGTTVTVSSASTKGPSVFPLAPSSKSTSGGTAALGCLVKDYFPEPVTVSWNSGALTSGVHTFPAVLQSSGLYSLSSVVTVPSSSLGTQTYICNVNHKPSNTKVDKKVEPKSCDKTHTCPPCPAPEAAGGPSVFLFPPKPKDTLMISRTPEVTCVVVDVSHEDPEVKFNWYVDGVEVHNAKTKPREEQYASTYRVVSVLTVLHQDWLNGKEYKCKVSNKALPAPIEKTISKAKGQPREPQVYTLPPSRCELTKNQVSLSCAVKGFYPSDIAVEWESNGQPENNYKTTPPVLDSDGSFFLVSKLTVDKSRWQQGNVFSCSVMHEALHNHYTQKSLSLSPDYKDDDDK chain 2: EPKSSDKTHTCPPCPAPELLGGPSVFLFPPKPKDTLMISRTPEVTCVVVDVSHEDPEVKFNWYVDGVEVHNAKTKPREEQYNSTYRVVSVLTVLHQDWLNGKEYKCKVSNKALPAPIEKTISKAKGQPREPQVCTLPPSRDELTKNQVSLWCLVKGFYPSDIAVEWESNGQPENNYKTTPPVLDSDGSFFLYSKLTVDKSRWQQGNVFSCSVMHEALHNRYTQKSLSLSP chain 3: DIVMTQSPLSLPVTPGEPASISCRSSQSLVHSNRNTYLHWYQQKPGQAPRLLIYKVSNRFSGVPDRFSGSGSGTDFTLKISRVEAEDVGVYYCGQGTQVPYTFGQGTKLEIKRTVAAPSVFIFPPSDEQLKSGTASVVCLLNNFYPREAKVQWKVDNALQSGNSQESVTEQDSKDSTYSLSSTLTLSKADYEKHKVYACEVTHQGLSSPVTKSFNRGEC
 | 31 nM | One-arm antibody: NNS6f51 (CE115HA340 with GFLVLW inserted between Kabat positions 99 and 100) / Kn010G3 / GLS3000-kappa (antibody) chain 1: QVQLVESGGGLVQPGRSLRLSCAASGFTFSNAWMHWVRQAPGKGLEWVAQIKDKSNNYATYYAESVKGRFTISRDDSKNSIYLQMNSLKTEDTAVYYCRYVHYAAGFLVLWYYGVDAWGQGTTVTVSSASTKGPSVFPLAPSSKSTSGGTAALGCLVKDYFPEPVTVSWNSGALTSGVHTFPAVLQSSGLYSLSSVVTVPSSSLGTQTYICNVNHKPSNTKVDKKVEPKSCDKTHTCPPCPAPEAAGGPSVFLFPPKPKDTLMISRTPEVTCVVVDVSHEDPEVKFNWYVDGVEVHNAKTKPREEQYASTYRVVSVLTVLHQDWLNGKEYKCKVSNKALPAPIEKTISKAKGQPREPQVYTLPPSRCELTKNQVSLSCAVKGFYPSDIAVEWESNGQPENNYKTTPPVLDSDGSFFLVSKLTVDKSRWQQGNVFSCSVMHEALHNHYTQKSLSLSPDYKDDDDK chain 2: EPKSSDKTHTCPPCPAPELLGGPSVFLFPPKPKDTLMISRTPEVTCVVVDVSHEDPEVKFNWYVDGVEVHNAKTKPREEQYNSTYRVVSVLTVLHQDWLNGKEYKCKVSNKALPAPIEKTISKAKGQPREPQVCTLPPSRDELTKNQVSLWCLVKGFYPSDIAVEWESNGQPENNYKTTPPVLDSDGSFFLYSKLTVDKSRWQQGNVFSCSVMHEALHNRYTQKSLSLSP chain 3: DIVMTQSPLSLPVTPGEPASISCRSSQSLVHSNRNTYLHWYQQKPGQAPRLLIYKVSNRFSGVPDRFSGSGSGTDFTLKISRVEAEDVGVYYCGQGTQVPYTFGQGTKLEIKRTVAAPSVFIFPPSDEQLKSGTASVVCLLNNFYPREAKVQWKVDNALQSGNSQESVTEQDSKDSTYSLSSTLTLSKADYEKHKVYACEVTHQGLSSPVTKSFNRGEC
